In test [1] the target is HAdV-D10 fiber protein (human adenovirus type 10 (HAdV-D10)). Briefly: cryo-EM structure.
In test [2] the target is HAdV-D10 penton base (human adenovirus type 10 (HAdV-D10)). Briefly: cryo-EM structure.

Regarding “HAdV-D10 fiber protein (natural protein)”, the stoichiometry N in test [1] amounted to 3.
On to HAdV-D10 penton base (natural protein), for which the stoichiometry N in test [2] stood at 5.

Source of the values: doi:10.1101/2025.09.20.677498.
